Positions count from the first letter of the chain named. Where two headings read alike, the source gives them in different places.
B1: MON-HT13: engineered oxygenase protein, amino acid sequence SEQ ID NO:47 (protein)
chain: MHAALTPLTNKYRFIDVQPLTGVLGAEITGVDLREPLDDSTWNEILDAFHTYQVIYFPGQAITNEQHIAFSRRFGPVDPVPILKSIEGYPEVQMIRREANESSRYIGDDWHADSTFLDAPPAAVVMRAIEVPEYGGDTGFLSMYSAWETLSPTMQATIEGLNVVHSATKVFGSLYQATNWRFSGTSVKVMDVDAGDRETVHPLVVTHPVTGRRALYCNQVYCQKIQGMTDAESKSLLQFLYEHATQFDFTCRVRWKKDQVLVWDNLCTMHRAVPDYAGKFRYLTRTTVAGDKPSR
B2: MON-HT15: engineered oxygenase protein, amino acid sequence SEQ ID NO:49 (protein)
chain: B1 chain with F14H, T153A, G184N, V220I
B3: MON-HT17: engineered oxygenase protein, amino acid sequence SEQ ID NO:51 (protein)
chain: B1 chain with G184N

Tests used:
[1] = kinetic analysis, non-endpoint assay at 23° C.; assay type: biochemical; conditions: for Vmax 2,4-D / Km / Vmax Quizalofop: Table 10 series, unit as defined
Description: For the fifth screen, recombinant protein for each of the eleven engineered proteins was produced and purified for an in-depth biochemical analysis. This biochemical analysis included: (1) kinetic analysis (Vmax and Km), (2) activity assays over a range of temperatures, (3) protein melting analysis, (4) activity on additional AOPP herbicides substrates, and (5) mass spectrometry analysis on peptides to confirm identity. The biochemical analyses were also done with purified recombinant wild-type protein and MON-HT55 protein for comparison. For the kinetic analysis, a non-endpoint assay was conducted at 23° C. with either quizalofop-P or 2,4-D as substrate. The recombinant proteins for these assays were produced in bacteria and purified using a 6-His tag fused at the C-terminal end of the protein. Results of the kinetic analysis with either quizalofop-P or 2,4-D as substrate are presented for ten of the engineered proteins, wild-type protein, and MON-HT55 protein in Table 7 (standard error is shown in parenthetical). Vmax is expressed as specific activity, umol herbicide product mg enzyme-1 min-1; Km expressed as mM herbicide substrate. […] The differentiation of the protein kinetics for MON-HTI and MON-HT7 were surprising because there are only four amino acid differences between MON-HT1 and MON-HT7. Specifically, MON-HT1 has the following amino acids at the indicated position: 182; F105; T112; and V273, and MON-HT7 has the following amino acids at the indicated position: L82; V105; S112; and A273.
Kinetic analysis using a non-endpoint assay was conducted at 23° C. with either quizalofop-P or 2,4-D as substrate, as detailed above for purified protein of the wild-type enzyme, MON-HT1, MON-HT13, MON-HT15, and MON-HT17.

[2] = assay type: physicochemical; conditions: Table 11 series
Method: A protein melting analysis was also conducted. For the protein melting determinations, purified enzyme was added to 96-well microtiter plates in standard storage buffer (30 mM Tris pH7.5, 150 mM NaCl) with or without 50 uM Fe2+ and 1.0 mM aKG. Protein unfolding was then detected with SYPRO® orange protein gel stain (Invitrogen™ catalog #S6651, Life Technologies, Grand Island, NY) in a BioRad CFX96™ Real time PCR machine (BioRad, Hercules, CA) with readings taken between 10° C. to 95° C. in 0.5° C. steps. […] In contrast, 50 uM Fe2+ and 1.0 mM aKG had little effect on the stability of any of the engineered proteins. MON-HT55, MON-HT3, MON-HT4, MON-HT6, and MON-HT10 had melting temperatures in the range of 41° C. to 48° C., which is below the melting temperature of the wild-type enzyme. MON-HT1, MON-HT2, MON-HT5, MON-HT7, MON-HT8, and MON-HT9 had melting temperatures between 58° C. and 67° C., which is 8° C. to 17° C. higher than the wild-type enzyme. For MON-HT7 and MON-HT1, the difference in melting point was 11° C. in buffer without Fe2+ and aKG and 8° C. in buffer with Fe2+ and aKG. This was surprising since there are only four amino acid differences between the two enzymes.
A protein melting analysis was conducted as detailed above. The melting temperatures of MON-HT13, MON-HT15, and MON-HT17 was similar to the melting temperature of MON-HT1 with T1/2 in buffer in the range of 55-58° C., and with T1/2 in buffer plus Fe2+ and aKG in the range of 60-62° C.

[3] = enzyme activity assay at 23° C. with purified enzyme; assay type: biochemical; conditions: for activity with fluroxypyr as the substrate / activity with triclopyr as the substrate: not robust enough to quantify; for MCPA Km / MCPA Vmax / Mecoprop Km: percentage of wild-type RdpA, set at 100%
Method: The enzyme activity of MON-HT protein variants with triclopyr, fluroxypyr, MCPA, MCPB, mecoprop, as substrates was determined using the enzyme activity assay conducted at 23° C. with purified enzyme. The activity was recorded as the maximum activity as a percentage of the wild-type RdpA enzyme's activity, which was set at 100%. […] The enzymatic activity with mecoprop as a substrate was reduced for each of the MON-HT1, MON-HT13, MON-HT15, and MON-HT17 variants compared to the wild-type RdpA enzyme. An unexpected result was that enzymatic activity with MCPA as a substrate was roughly 6-fold greater for MON-HT1, and approximately 10-fold greater for MON-HT13, MON-HT15, and MON-HT17 compared to the wild-type RdpA enzyme.

[4] = system: transgenic soybean plants; assay: R0 soybean 2,4-D spray test of 2,4-D optimized variants; assay type: in vivo; conditions: for tolerance to 2,4-D treatment: 2× application rate, soy
Description: An additional five engineered proteins optimized for activity for 2,4-D were then selected for analysis in transgenic soybean. DNA constructs were produced for expressing MON-HT13 (SEQ ID NO:47), MON-HT14 (SEQ ID NO:48), MON-HT15 (SEQ ID NO:49), MON-HT17 (SEQ ID NO:51), and MON-HT18 (SEQ ID NO:52) with codon usage optimized for dicot expression. The operably linked expression elements (promoter, leader, intron, CTP, and 3′UTR) were identical in all of the constructs. Leaf samples were taken from R0 plantlets and single copy plants were identified using a PCR-based assay. When the single-copy R0 plants had approximately two to three trifoliate leaves, they were treated with either 1.5 lb ae/acre (2×) or 3.0 lb ae/acre (4×) of 2,4-D. Seven days after herbicide application, the plants were scored for herbicide injury based on the percent area of the plant showing injury, as indicated above.

[5] = 23° C., read-out: Km Quizalofop
[6] = 2,4-D rate 2X (1.5 lb ae/acre), single copy R0 soy, seven days after application

Molecule	enzymatic activity with quizalofop compared with MON-HT1 [1]	Vmax 2,4-D [1]	Km ([1]; read-out: Km 2,4-D)	Vmax Quizalofop ([1]; 23° C.)	Km [1, 5]	Melting temp, Buffer [2]	Melting temp, Buffer plus Fe2+ and aKG [2]	activity with MCPB as the substrate [3]	enzymatic activity with MCPA greater compared to the wild-type RdpA enzyme [3]	activity with fluroxypyr as the substrate [3]	activity with triclopyr as the substrate [3]	MCPA Km [3]	MCPA Vmax [3]	Mecoprop Km [3]	Events with 20-50% injury [4, 6]	Events with <20% injury [4, 6]	tolerance to 2,4-D treatment [4]
B1	roughly similar to the activity of MON-HT1	3.38 (0.05) umol herbicide product mg enzyme-1 min-1	80 µM	1.51 (0.05) umol herbicide product mg enzyme-1 min-1	120 µM	57 °C	62 °C	no detectable activity	approximately 10 fold	detectable activity	detectable activity	68%	1800%	92%	1	12	excellent tolerance
B2	roughly similar to the activity of MON-HT1	3.53 (0.04) umol herbicide product mg enzyme-1 min-1	70 µM	1.52 (0.06) umol herbicide product mg enzyme-1 min-1	120 µM	55 °C	60 °C	no detectable activity	approximately 10 fold	detectable activity	detectable activity	59%	1300%	57%		5	excellent tolerance
B3	roughly similar to the activity of MON-HT1	2.91 (0.04) umol herbicide product mg enzyme-1 min-1	70 µM	1.53 (0.05) umol herbicide product mg enzyme-1 min-1	140 µM	57 °C	61 °C	no detectable activity	approximately 10 fold	detectable activity	detectable activity	62%	1400%	65%		12	excellent tolerance
